# Experimental data as given in paper PMC3035472.
# Target: sigma A (primary sigma factor), wild type, refolded from inclusion bodies (Bacillus subtilis, UniProt P06224 1-371)
# Test: EMSA
# sigma A (primary sigma factor), wild type, refolded from inclusion bodies, sequence (P06224 whole entry): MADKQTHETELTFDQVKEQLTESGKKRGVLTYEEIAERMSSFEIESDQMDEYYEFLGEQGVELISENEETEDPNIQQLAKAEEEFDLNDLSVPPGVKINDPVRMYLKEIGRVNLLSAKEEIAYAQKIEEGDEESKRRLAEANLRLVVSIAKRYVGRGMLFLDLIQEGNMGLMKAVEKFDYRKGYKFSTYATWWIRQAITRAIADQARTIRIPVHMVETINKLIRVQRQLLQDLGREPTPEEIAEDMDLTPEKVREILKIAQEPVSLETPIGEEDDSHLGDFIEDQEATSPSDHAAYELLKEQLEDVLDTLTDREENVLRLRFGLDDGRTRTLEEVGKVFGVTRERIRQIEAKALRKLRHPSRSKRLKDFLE
binder,measurement,value
tgbp3 cDNA fragment (non-promoter) (dsDNA) DNA 1: AGACTACCATGGCTCTAAACACTGACACACTATGCATCATTCTGTTCATACTAATATTAGGCATCCTATATAATATACTTCAACAGCATCTGCCCCCACCATGTGAAATAATAATAAACGGGCACACTATATCCATTAGGGGCAACTGCTACCACACCACCTCCAGCCTCGAGCACCAC DNA 2: GTGGTGCTCGAGGCTGGAGGTGGTGTGGTAGCAGTTGCCCCTAATGGATATAGTGTGCCCGTTTATTATTATTTCACATGGTGGGGGCAGATGCTGTTGAAGTATATTATATAGGATGCCTAATATTAGTATGAACAGAATGATGCATAGTGTGTCAGTGTTTAGAGCCATGGTAGTCT,binding result,binds
